Source: publication PMC12599243, “Mechanistic insights into DNA binding by BD1 of the TAF1 tandem bromodomain module”

Assays:
[1] = target: T1, TAF1 tandem bromodomain (BD1-BD2) (human, UniProt P21675 1402-1656); test: EMSA; settings: EMSA: 50 mM HEPES pH 7.5, 100 mM NaCl, 35 nM DNA, 1 h at 4 C, 6% native PAGE, 0.5x TBE, 100 V on ice. HeLa mononucleosome pulldown (undefined DNA) not listed.
T1 sequence: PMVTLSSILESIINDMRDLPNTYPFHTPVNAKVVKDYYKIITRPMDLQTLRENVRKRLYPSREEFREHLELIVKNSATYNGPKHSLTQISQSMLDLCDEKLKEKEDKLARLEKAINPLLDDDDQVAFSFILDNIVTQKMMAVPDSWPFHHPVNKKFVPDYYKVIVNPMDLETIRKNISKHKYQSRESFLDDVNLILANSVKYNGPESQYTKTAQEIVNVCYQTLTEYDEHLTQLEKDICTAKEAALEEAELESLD

[2] = target: Histone H4 H4K5acK12ac peptide (Homo sapiens) (UniProt P62805); settings: cited from earlier work
[3] = target: Histone H4 H4K8acK16ac peptide (Homo sapiens) (UniProt P62805); settings: cited from earlier work
[4] = target: TAF1 tandem bromodomain BD1 triple mutant (R1435S/K1436S/R1437S), 6xHis-tagged (human); test: pull-down; 20 μg hyperacetylated HeLa mononucleosomes (cells treated with trichostatin A) mixed with 50 μM 6xHis-tagged TAF1 tandem bromodomain or its mutant, 4°C, 60 min; captured on Ni-NTA agarose; washed with 50 mM HEPES pH 7.5, 500 mM KCl, 2 mM EDTA, 0.1% Tween-20; eluted with 500 mM imidazole; western blot with anti-H4K5ac and anti-H4K8ac
[5] = target: T1, TAF1 tandem bromodomain (BD1-BD2); test: EMSA; no peptide; EMSA: 50 mM HEPES pH 7.5, 100 mM NaCl, 35 nM DNA, 1 h at 4 C; 6% native PAGE, 0.5x TBE, 100 V on ice. HeLa mononucleosome pulldown (undefined DNA) not listed.; settings: protein: recombinant; tags: C-terminal 6xHis; label: none (SYBR Gold stain); blunt

**Q.** Which results are given for 147 bp Widom 601 DNA?
**A.** Kd ([1]; 320 uM H4(1-15)K5acK12ac peptide): 19.7 µM; Kd ([1]; no peptide): 16.8 µM

**Q.** What does the source list for “TAF1 tandem bromodomain (from UniProt P21675)”?
**A.** Kd [2]: 1.4 µM; Kd [3]: 5.3 µM

**Q.** For “acetylated mononucleosomes isolated from HeLa cells (from UniProt P62805 1-103) (complex)”, which fold decrease in binding against wildtype [4] is on record?
**A.** 1.5 fold

B1: 147 bp GC-rich 601 DNA (AT-tracts mutated to GC) (dsDNA)
DNA 1: CTGGAGAATCCCGGTGCCGAGGCCGCTCGACTGGTCGTAGACAGCTCTAGCACCGCTCAGACGCACGTACGCGCTGTCCCCCGCGTTTCAGCCGCCAAGGGGACTGCTCCCTAGTCTCCAGGCACGTGTCAGATGCGTACATCCTGT
DNA 2: ACAGGATGTACGCATCTGACACGTGCCTGGAGACTAGGGAGCAGTCCCCTTGGCGGCTGAAACGCGGGGGACAGCGCGTACGTGCGTCTGAGCGGTGCTAGAGCTGTCTACGACCAGTCGAGCGGCCTCGGCACCGGGATTCTCCAG
**Q.** Which Kd [5] does the source give for B1 here?
**A.** 34.2 ± 5.4 µM
